Assay results: patent US20110091994A1, “Methods for Screening Compounds for Treating and/or Preventing an Hepatitis C Virus Infection” (priority 2008, published 2011)

B1: GNB2 (protein, UniProt P62879 2-340, looked up)
Guanine nucleotide-binding …: SELEQLRQEAEQLRNQIRDARKACGDSTLTQITAGLDPVGRIQMRTRRTLRGHLAKIYAMHWGTDSRLLVSASQDGKLIIWDSYTTNKVHAIPLRSSWVMTCAYAPSGNFVACGGLDNICSIYSLKTREGNVRVSRELPGHTGYLSCCRFLDDNQIITSSGDTTCALWDIETGQQTVGFAGHSGDVMSLSLAPDGRTFVSGACDASIKLWDVRDSMCRQTFIGHESDINAVAFFPNGYAFTTGSDDATCRLFDLRADQELLMYSHDNIICGITSVAFSRSGRLLLAGYDDFNCNIWDAMKGDRAGVLAGHDNRVSCLGVTDDGMAVATGSWDSFLKIWN
B2: FUCA2 (protein, UniProt Q9BTY2 29-467, looked up)
Plasma alpha-L-fucosidase: HSATRFDPTWESLDARQLPAWFDQAKFGIFIHWGVFSVPSFGSEWFWWYWQKEKIPKYVEFMKDNYPPSFKYEDFGPLFTAKFFNANQWADIFQASGAKYIVLTSKHHEGFTLWGSEYSWNWNAIDEGPKRDIVKELEVAIRNRTDLRFGLYYSLFEWFHPLFLEDESSSFHKRQFPVSKTLPELYELVNNYQPEVLWSDGDGGAPDQYWNSTGFLAWLYNESPVRGTVVTNDRWGAGSICKHGGFYTCSDRYNPGHLLPHKWENCMTIDKLSWGYRREAGISDYLTIEELVKQLVETVSCGGNLLMNIGPTLDGTISVVFEERLRQMGSWLKVNGEAIYETHTWRSQNDTVTPDVWYTSKPKEKLVYAIFLKWPTSGQLFLGHPKAILGATEVKLLGHGQPLNWISLEQNGIMVELPQLTIHQMPCKWGWALALTNVI
B3: IQWD1 (protein, UniProt Q58WW2 1-860, looked up)
DDB1- and CUL4-associated …: MSRGGSYPHLLWDVRKRSLGLEDPSRLRSRYLGRREFIQRLKLEATLNVHDGCVNTICWNDTGEYILSGSDDTKLVISNPYSRKVLTTIRSGHRANIFSAKFLPCTNDKQIVSCSGDGVIFYTNVEQDAETNRQCQFTCHYGTTYEIMTVPNDPYTFLSCGEDGTVRWFDTRIKTSCTKEDCKDDILINCRRAATSVAICPPIPYYLAVGCSDSSVRIYDRRMLGTRATGNYAGRGTTGMVARFIPSHLNNKSCRVTSLCYSEDGQEILVSYSSDYIYLFDPKDDTARELKTPSAEERREELRQPPVKRLRLRGDWSDTGPRARPESERERDGEQSPNVSLMQRMSDMLSRWFEEASEVAQSNRGRGRSRPRGGTSQSDISTLPTVPSSPDLEVSETAMEVDTPAEQFLQPSTSSTMSAQAHSTSSPTESPHSTPLLSSPDSEQRQSVEASGHHTHHQSDNNNEKLSPKPGTGEPVLSLHYSTEGTTTSTIKLNFTDEWSSIASSSRGIGSHCKSEGQEESFVPQSSVQPPEGDSETKAPEESSEDVTKYQEGVSAENPVENHINITQSDKFTAKPLDSNSGERNDLNLDRSCGVPEESASSEKAKEPETSDQTSTESATNENNTNPEPQFQTEATGPSAHEETSTRDSALQDTDDSDDDPVLIPGARYRAGPGDRRSAVARIQEFFRRRKERKEMEELDTLNIRRPLVKMVYKGHRNSRTMIKEANFWGANFVMSGSDCGHIFIWDRHTAEHLMLLEADNHVVNCLQPHPFDPILASSGIDYDIKIWSPLEESRIFNRKLADEVITRNELMLEETRNTITVPASFMLRMLASLNHIRADRLEGDRSEGSGQENENEDEE
B4: HOMER3 (protein, UniProt Q9NSC5 1-361, looked up)
Homer protein homolog 3: MSTAREQPIFSTRAHVFQIDPATKRNWIPAGKHALTVSYFYDATRNVYRIISIGGAKAIINSTVTPNMTFTKTSQKFGQWADSRANTVYGLGFASEQHLTQFAEKFQEVKEAARLAREKSQDGGELTSPALGLASHQVPPSPLVSANGPGEEKLFRSQSADAPGPTERERLKKMLSEGSVGEVQWEAEFFALQDSNNKLAGALREANAAAAQWRQQLEAQRAEAERLRQRVAELEAQAASEVTPTGEKEGLGQGQSLEQLEALVQTKDQEIQTLKSQTGGPREALEAAEREETQQKVQDLETRNAELEHQLRAMERSLEEARAERERARAEVGRAAQLLDVSLFELSELREGLARLAEAAP
B5: FIGNL1 (protein, UniProt Q6PIW4 1-674, looked up)
Fidgetin-like protein 1: MQTSSSRSVHLSEWQKNYFAITSGICTGPKADAYRAQILRIQYAWANSEISQVCATKLFKKYAEKYSAIIDSDNVESGLNNYAENILTLAGSQQTDSDKWQSGLSINNVFKMSSVQKMMQAGKKFKDSLLEPALASVVIHKEATVFDLPKFSVCGSSQESDSLPNSAHDRDRTQDFPESNRLKLLQNAQPPMVTNTARTCPTFSAPVGESATAKFHVTPLFGNVKKENHSSAKENIGLNVFLSNQSCFPAACENPQRKSFYGSGTIDALSNPILNKACSKTEDNGPKEDSSLPTFKTAKEQLWVDQQKKYHQPQRASGSSYGGVKKSLGASRSRGILGKFVPPIPKQDGGEQNGGMQCKPYGAGPTEPAHPVDERLKNLEPKMIELIMNEIMDHGPPVNWEDIAGVEFAKATIKEIVVWPMLRPDIFTGLRGPPKGILLFGPPGTGKTLIGKCIASQSGATFFSISASSLTSKWVGEGEKMVRALFAVARCQQPAVIFIDEIDSLLSQRGDGEHESSRRIKTEFLVQLDGATTSSEDRILVVGATNRPQEIDEAARRRLVKRLYIPLPEASARKQIVINLMSKEQCCLSEEEIEQIVQQSDAFSGADMTQLCREASLGPIRSLQTADIATITPDQVRPIAYIDFENAFRTVRPSVSPKDLELYENWNKTFGCGK
B6: FRMPD4 (protein, UniProt Q14CM0 1-1322, looked up)
FERM and PDZ …: MDVFSFVKIAKLSSHRTKSSGWPPPSGTWGLSQVPPYGWEMTANRDGRDYFINHMTQAIPFDDPRLESCQIIPPAPRKVEMRRDPVLGFGFVAGSEKPVVVRSVTPGGPSEGKLIPGDQIVMINDEPVSAAPRERVIDLVRSCKESILLTVIQPYPSPKSAFISAAKKARLKSNPVKVRFSEEVIINGQVSETVKDNSLLFMPNVLKVYLENGQTKSFRFDCSTSIKDVILTLQEKLSIKGIEHFSLMLEQRTEGAGTKLLLLHEQETLTQVTQRPSSHKMRCLFRISFVPKDPIDLLRRDPVAFEYLYVQSCNDVVQERFGPELKYDIALRLAALQMYIATVTTKQTQKISLKYIEKEWGLETFLPSAVLQSMKEKNIKKALSHLVKANQNLVPPGKKLSALQAKVHYLKFLSDLRLYGGRVFKATLVQAEKRSEVTLLVGPRYGISHVINTKTNLVALLADFSHVNRIEMFSEEESLVRVELHVLDVKPITLLMESSDAMNLACLTAGYYRLLVDSRRSIFNMANKKNTATQETGPENKGKHNLLGPDWNCIPQMTTFIGEGEQEAQITYIDSKQKTVEITDSTMCPKEHRHLYIDNAYSSDGLNQQLSQPGEAPCEADYRSLAQRSLLTLSGPETLKKAQESPRGAKVSFIFGDFALDDGISPPTLGYETLLDEGPEMLEKQRNLYIGSANDMKGLDLTPEAEGIQFVENSVYANIGDVKSFQAAEGIEEPLLHDICYAENTDDAEDEDEVSCEEDLVVGEMNQPAILNLSGSSDDIIDLTSLPPPEGDDNEDDFLLRSLNMAIAAPPPGFRDSSDEEDSQSQAASFPEDKEKGSSLQNDEIPVSLIDAVPTSAEGKCEKGLDNAVVSTLGALEALSVSEEQQTSDNSGVAILRAYSPESSSDSGNETNSSEMTESSELATAQKQSENLSRMFLATHEGYHPLAEEQTEFPASKTPAGGLPPKSSHALAARPATDLPPKVVPSKQLLHSDHMEMEPETMETKSVTDYFSKLHMGSVAYSCTSKRKSKLADGEGKAPPNGNTTGKKQQGTKTAEMEEEASGKFGTVSSRDSQHLSTFNLERTAFRKDSQRWYVATEGGMAEKSGLEAATGKTFPRASGLGAREAEGKEEGAPDGETSDGSGLGQGDRFLTDVTCASSAKDLDNPEDADSSTCDHPSKLPEADESVARLCDYHLAKRMSSLQSEGHFSLQSSQGSSVDAGCGTGSSGSACATPVESPLCPSLGKHLIPDASGKGVNYIPSEERAPGLPNHGATFKELHPQTEGMCPRMTVPALHTAINTEPLFGTLRDGCHRLPKIKETTV
B7: FES (protein, UniProt P07332 1-822, looked up)
Tyrosine-protein kinase …: MGFSSELCSPQGHGVLQQMQEAELRLLEGMRKWMAQRVKSDREYAGLLHHMSLQDSGGQSRAISPDSPISQSWAEITSQTEGLSRLLRQHAEDLNSGPLSKLSLLIRERQQLRKTYSEQWQQLQQELTKTHSQDIEKLKSQYRALARDSAQAKRKYQEASKDKDRDKAKDKYVRSLWKLFAHHNRYVLGVRAAQLHHQHHHQLLLPGLLRSLQDLHEEMACILKEILQEYLEISSLVQDEVVAIHREMAAAAARIQPEAEYQGFLRQYGSAPDVPPCVTFDESLLEEGEPLEPGELQLNELTVESVQHTLTSVTDELAVATEMVFRRQEMVTQLQQELRNEEENTHPRERVQLLGKRQVLQEALQGLQVALCSQAKLQAQQELLQTKLEHLGPGEPPPVLLLQDDRHSTSSSEQEREGGRTPTLEILKSHISGIFRPKFSLPPPLQLIPEVQKPLHEQLWYHGAIPRAEVAELLVHSGDFLVRESQGKQEYVLSVLWDGLPRHFIIQSLDNLYRLEGEGFPSIPLLIDHLLSTQQPLTKKSGVVLHRAVPKDKWVLNHEDLVLGEQIGRGNFGEVFSGRLRADNTLVAVKSCRETLPPDLKAKFLQEARILKQYSHPNIVRLIGVCTQKQPIYIVMELVQGGDFLTFLRTEGARLRVKTLLQMVGDAAAGMEYLESKCCIHRDLAARNCLVTEKNVLKISDFGMSREEADGVYAASGGLRQVPVKWTAPEALNYGRYSSESDVWSFGILLWETFSLGASPYPNLSNQQTREFVEKGGRLPCPELCPDAVFRLMEQCWAYEPGQRPSFSTIYQELQSIRKRHR

Biological target: T1, HCV ORFs (Gal4-DB fusions) (Hepatitis C virus genotype 1b, UniProt Q9WMX2)
T1 construct: expressed in transfected cells; host or cells: Saccharomyces cerevisiae MAV203 (IMAP1) / AH109 (IMAP2)
T1 sequence (Q9WMX2 1027-1657): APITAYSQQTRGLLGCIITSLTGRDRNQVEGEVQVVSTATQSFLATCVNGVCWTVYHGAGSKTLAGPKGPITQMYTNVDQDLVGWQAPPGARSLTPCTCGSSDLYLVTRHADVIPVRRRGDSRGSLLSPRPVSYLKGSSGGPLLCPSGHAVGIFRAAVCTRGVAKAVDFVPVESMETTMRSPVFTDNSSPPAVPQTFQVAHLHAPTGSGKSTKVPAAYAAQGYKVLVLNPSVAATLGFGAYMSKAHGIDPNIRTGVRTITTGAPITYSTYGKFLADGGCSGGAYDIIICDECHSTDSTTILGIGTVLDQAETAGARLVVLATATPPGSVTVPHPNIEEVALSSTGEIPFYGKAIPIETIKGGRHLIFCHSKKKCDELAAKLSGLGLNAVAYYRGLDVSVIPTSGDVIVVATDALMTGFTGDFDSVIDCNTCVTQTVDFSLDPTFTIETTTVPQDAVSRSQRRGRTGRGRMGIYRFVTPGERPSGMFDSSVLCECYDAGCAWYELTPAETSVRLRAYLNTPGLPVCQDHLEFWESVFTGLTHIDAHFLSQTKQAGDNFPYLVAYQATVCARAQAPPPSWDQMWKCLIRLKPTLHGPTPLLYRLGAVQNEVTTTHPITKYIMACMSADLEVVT
Experiment: not given
Format: binding, HCV genotype 1b, isolate con1
Details: HCV protein NS3 as bait; human protein as prey
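For IMAP Y2H IMAP1 (number of IST) in this document: yeast two-hybrid screens using HCV genotype 1b proteins fused to Gal4-DB as baits against prey cDNA libraries from human spleen and foetal brain, IMAP1 via transformation and IMAP2 via mating.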
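For IMAP Y2H IMAP2 (number of IST) in this document: yeast two-hybrid screens using HCV genotype 1b proteins fused to Gal4-DB as baits against prey cDNA libraries from human spleen and foetal brain, IMAP1 via transformation and IMAP2 via mating.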
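For Interaction with viral protein in this document: yeast two-hybrid screens using HCV genotype 1b proteins fused to Gal4-DB as baits against prey cDNA libraries from human spleen and foetal brain, IMAP1 via transformation and IMAP2 via mating.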

Row | Molecule | IMAP Y2H IMAP1 (number of IST) | IMAP Y2H IMAP2 (number of IST)
1 | B1 | 1 | 
2 | B2 | 2 | 
3 | B3 | 2 | 
4 | B4 | 4 | 1
5 | B5 | 1 | 
6 | B6 | 1 | 
7 | B7 | 1 | 

Test system: HCV ORFs (Gal4-DB fusions)
Experiment: not given
Format: binding, HCV genotype 1b, isolate con1
Details: human protein listed by gene symbol; the value names the HCV protein it interacts with

Row | Molecule | Interaction with viral protein
8 | B1 | NS3
9 | B2 | NS3
10 | B3 | NS3
11 | B4 | NS3
12 | B5 | NS3
13 | B6 | NS3
14 | B7 | NS3

Biological target: T2, HCV proteins (Hepatitis C virus genotype 1b, UniProt Q9WMX2)
T2 construct: expressed in transfected cells
T2 sequence (Q9WMX2 1027-1657): as above
Experiment: Validation by Y2H pairwise matrices;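 also: yeast two-hybrid pairwise tests of interactions first found in Y2H screens of HCV bait proteins against human cDNA libraries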
Format: binding
Details: validation of interaction with HCV protein NS3

Row | Molecule | Y2H matrices
15 | B1 | +
16 | B2 | +
17 | B3 | +
18 | B4 | +
19 | B5 | +
20 | B6 | +
21 | B7 | +
